In a protein production outcome set (Wang et al. 2014):

Assay: label from the status in PepcDB records
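Further: failed if final PepcDB status was selected cloned or expressed and not failed if soluble or beyond.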

**Q.** For “MSTVKNGTLEQDKLNWFKYLLFGIQHVLVMIAVPITSVFLVAKALSLSDQLTVNLMSATFLVCGLGTLLQSIGVYKFGSRLPFVMIPGGAPIVMFLGIAQEKDLATASGAVILTSLFYFIILPVFKRFLRFFPNIVIGTLLILVSINLIKIYGGLVIGKPDTADFASTLNIGLAFATIAASLFFARVLKGTLSQLSILLGLIFGTILSAFLGQMHFETITQPTIFSLPTIMPFGVPKFDLVATIPLLIFSLISMVEATGQTIAISDLVGKKETAFERVPPTIRGDALISLLGGWLGTSMIITSGENIGIVRATQVRSRYVTIIAGIILLIISVFTPLAHLANAIPVAVVSGTAIIVFSIIGTIGIDILRRVDLHEKGNMYVLAGALTMGLLPILVNGVYTNFPHALQPILNNGLAMGALTAILLNIVFSTHSQADAHQESK”, which protein production is on record?
**A.** The protein production was “failed”.

**Q.** Which protein production does the source give for “MILGIDVGGTSVKFGLVTPEGEIQNATRFMTADWVNGIGFVESMKLEIGNFLKQYPIVKGVGIGWPGLVSLDRTKVILLPNIPSVVNVPIVEILRSEFPHIHFKIENDAKCAALGEYYFGENKRMQTFILLALGTGVGSGVMMNGKLFIGGRGNGTEVGHMLTTRGKSLENQVGINHLIAYTHEQLALDVAKKSSLHTIAELSPKVIADHAAQGDALALAVWADIGTIIGESLVNIVRVMDLNNILLGGGISGAFDYFVPNLKKAMLEHLPTYYTDDMYIGKATLENDAGLLGAAGLIMEAI” here?
**A.** The protein production was “not failed”.

**Q.** For “MTRTTGTRTTGILADGAIRALFAGDKLKSEADLDVDQVQPASLDLRLGSKAYRVRASFMPGPGTRVIDKLNRFSLHEVDLSQGAVLETGCVYIVPLMESLALPADMSASANPKSSTGRLDIFTRVMTDNAQEFDKIPAGYTGPLYLEISPRTFPIVVRRGSRLSQIRFRIGHALLNESEVLKLHETETLVASENPNVTGGGIALSIDLKGFGENGLIGYRGKHHTAVVDVDKKAQHDVLDFWEPLFARGRAELILDPDEFYILVSREAVHVPPLYAAEMTPFDPLVGEFRVHYAGFFDPGFGHAQAGGTGSRAVLEVRSHEVPFILEHGQIVGRLVYEHMLEKPEGLYGTGLGSNYQAQGLKLSKHFRAE”, which protein production is on record?
**A.** The protein production was “not failed”.

**Q.** Which protein production does the source give for “MTHQVIDCLGVVLAGGLSSRMGQDKAQLKRLQKTTDPSAKSAHSMLDFSKQLLADAGIKNIVISGDNHQIPDRVPHAGPVGGIYSVLSHYLANSPEHLQPKALLILPVDLPLMTASALTELRLKGELSHKATFFSDRQKNRHHIPLYLPNNAFLNMFLMQAFHREELLANSKGNNKKNGPSVRAMLEQVPHQAIASLNNQVLFNTNTPEQWQQAQQKF” here?
**A.** Its protein production is “failed”.

**Q.** For “MSCTGFWRKLASGEECGAAARLLGAVLAIPAALYGLVVRLRALAYARGLSTVRHLDRPVISVGNLTVGGTGKTPMVAYLARRLMARGKRVAVISRGYGGSLEGETRIVSDGRTIVLSAAEAGDEPVHLATSVPGLMTVIGTDRYTAGLLALEQLDPDVFILDDGYQHLRLHRDLNILLMDCNRPLGNGRTLPAGLLREPQTAVRRADLVVYTRCTGGKAPAVHGMIPSCRAGHALTGAALLPDGEVQPLAALRGLRGVACAGIAEPEGFFDALRREGLDIVAAIPFADHASYGEREVSTLREAAAGADYLITTGKDGVKLSAHLARLLPVYATVLEMRPLDPAPLEAALDKVL”, which protein production is on record?
**A.** The protein production was “failed”.

**Q.** For “MGNSQRQSEEIEAMAAIYGEEWCVIDENAKIFCIRVTDFMDDPKWTLCLQVMLPSEYPGTAPPSYQLNAPWLKGQERADLSNSLEEIYVHNMGESILYQWVEKIRDALIQKSQITEP”, which protein production is on record?
**A.** Its protein production is “not failed”.

**Q.** For “MKIAYLGPSGSFTHNVALHAFPAADLLPFENITEVIKAYESKQVCFAIVPVENSIEGSVHETFDYLFHQAKIEAVAEIILPIKQQLMSTSADKTIETIFSHPQAIAQGKQYIRSHYPDVKIEMTASTAYAARFVAEHPEENYAAIAPYAAADEYHLSIIAKDIQEIDENYTRFWVLGDETP”, which protein production is on record?
**A.** The protein production was “failed”.

**Q.** With “MDFFHHQDTARQRTGLLVMLFTLAVLAITGLVSVISIGIYFYFTGEPFTTQSIISYCLLSFVGVLLVVSISSFIRLSELNANGGRGVAESIGGKLISTDTSNAKHRQLLNVVEEMSIASGIPVPPVYVMAEEHGINAFAAGMSIDDAVIGVTQGALDAFSRDELQGVIAHEFSHILNGDMRLNTRLIGALFGITCIAHFGHLILDNSNSTRHVSRSSSDSNKGFAVIILIAIVCLVLGWLGTLFGNMIKAAISRQREFLADASAVQFTRNDQGIAGALKKIGSNVQGSTLNTKASDEMSHMMFGQSKLSGFSGLFATHPPLDERIRRIEPNWDGSYAQHSHAQNTAFDNEQVSGFAVGGGSPASQSASPSEQLSETGQQLISQLPPELVDIAREPYSARFIAFALIFDGSDIQREMIKSYVPLASQSTLLPWLDYDLPLHLRFPLLELALPALKSLSEAQKISLCKVLRELSETDNQYSLAEWCVINLLEKQLLASFGFIKQHKSLKQLEESVFWLLRELAWVSHSQADKAQRAYHCALAHLGFPEVKLEPANSNWHLSRAALELLLQLKPNDRRMFVKACRLAIESDGEITVAEGEIYRVIACFLEVPEPPLTISG” as the sequence, how does the protein production read?
**A.** The protein production was “failed”.

**Q.** Which protein production does the source give for “MKANAIASDIKISKRDLEVAALAVIGTVAYIHYLWSFVLKITSPILIARGIFETTYSVLSIGLAKYVRIYYPLGIASSFTGAALTVIKLHLYESEIFSIINIVFDIFSVPVCAFLFIKNMEVINWH” here?
**A.** Its protein production is “failed”.

**Q.** With “MSFKDLREFIDHLEQKGRLKRITHPVDPAYEMTEISDRTLRAGGPALLFENPIGYNVPVLTNLFGTPERVAIGMGREDVKELREVGKLLAYLKEPEPPKGFKDALEKLPVFKQVLNMPAKRLRKAPCQDIVWQGDEVDLDKIPVMSCWAEDVAPLLTWGLTVTKGPNKKRQNLGIYRQQKIAKNKIIMRWLAHRGGALDLRDWMETNPGKPFPVSVAFGADPATILGAVTPVPDTLSEYAFAGLLRGSKTEVVKSISNDLEVPASAEIVMEGYIDPNEFADEGPYGDHTGYYNEKEKHHVFTITHITMRKDPIYHSTYTGRPPDEPAVLGVALNEVFVPILQKQFPEIEDFYLPPEGCSYRMAVVTMKKQYPGHAKRVMMGVWSFLRQFMYTKFVIVCDESVNARDWNDVVKAMTEHMDPVRDTLMIDNTPIDSLDFASPVVGLGSKMGLDATIKWDAELATRPQISKQDSKVITEADLESLKQQRPEIIDIYLPPTTNNRFAVVTMKKDQAGQSQALMEYLWDFFAQYTDNKFVILCDEDVNARDWNDIIWAVTTRMDPDRDTTRVSGKAESSSKLGLDATNKFESEVTREWGTPIKKDPKLVAKVDEIWDQLGIL” as the sequence, how does the protein production read?
**A.** Its protein production is “failed”.

**Q.** Which protein production does the source give for “MRQIPQNHIHTRSTPFWNKETAPAGIFERHLDKGTRPGVYPRLSVMQGAVKYLGYADEHCSEPEEIMVINAGEFGVFPPEKWHNIEVMTDDTYFNIDFFVAPEVLMEGATSRKVIHAGRE” here?
**A.** The protein production was “failed”.

**Q.** With “MTISYPAKEFLQTIFKTPYLKNLYLSPTMSIYDTLIGSPATTLKRYLLKSDVAVMYTSPSTYVENEDSSFRFNQNCSPMPPWVLGTKSKTIINTLPPKKSHKRTNTDIIGIHSMTSQNSSGSSYFQLLDLLADLGELIYDDEAMKGFYYEFMNLDNKNAFNNDENLNNLMITFTNLGGASNANESGLKIGATTSGVKTKVDEDIEPLCRHYKCATMDSSFIHWITHWNLLDQVFSSNFVGEGEYYTDPNEVKRILENRDLDTRSKQGKSLYIVDLEGSVRIHVMVNTSLYGMIVLLEVRHITLAKKKNDVDDEREQENEDSS” as the sequence, how does the protein production read?
**A.** Its protein production is “failed”.

**Q.** With “MSLSNSKSTTTKDTVATLPNGASSLTETYGLWSINCGIQEGKKVCFMHRQEVNDQNRVVVAMSVVLNADGVVSGNLTVPFGILVSKPVRLQVDEGKAVIETGIRTCVPAGCIVPIVFDKNYVAALRAGKHLKLAMTIAAPGEPPLNDLFVQLNGFSNALNRLIALQKEGHHHHHH” as the sequence, how does the protein production read?
**A.** The protein production was “not failed”.

**Q.** With “MRCTRLEARRMLSHINENQQPQMVDISEKAVSDRRAVAEALIELPPVFQAYVQGGDLFLKKGPVVQTAIIAGTMAVKRTAEVIPFCHPLPITSCRFETDIESQESGLRIRLRCEVKTCDRTGVEMESLHGVAIAALTIYDMAKALSPHIVIREVRLLAKSGGKKTLGQYPLYGLVLTGGQSQRMGQAKALLDYYGEPHAQYLYNLLAQSCEQVFLSAQPNQWQGTPLADLPTLPDILPQIGPIAGILTALRAYPQVNWLVVACDLPYLTTETLAPLLHHYREDVVATCYHHPQEGFPEPLCAIYTPQALPVFEAAYAEGIYCPVKILQRSPCQRIAPPQPTITANINTPEEYHEALHHVRRP” as the sequence, how does the protein production read?
**A.** Its protein production is “failed”.

**Q.** Which protein production does the source give for “MDDKAFTKELDQWVEQLNECKQLNENQVRTLCEKAKEILTKESNVQEVRCPVTVCGDVHGQFHDLMELFRIGGKSPDTNYLFMGDYVDRGYYSVETVTLLVALKVRYPERITILRGNHESRQITQVYGFYDECLRKYGNANVWKYFTDLFDYLPLTALVDGQIFCLHGGLSPSIDTLDHIRALDRLQEVPHEGPMCDLLWSDPDDRGGWGISPRGAGYTFGQDISETFNHANGLTLVSRAHQLVMEGYNWCHDRNVVTIFSAPNYCYRCGNQAAIMELDDTLKYSFLQFDPAPRRGEPHVTRRTPDYFL” here?
**A.** Its protein production is “failed”.

**Q.** With “MSLGHGDEGITPLSSEIVNFSTTVWTDGDKDHLEKHLVENLNCIRHYPEPDAGTLRQMLAKRNSVDNNAILVTNGPTAAFYQIAQAFRGSRSLIAIPSFAEYEDACRMYEHEVCFYPSNEDIGEADFSNMDFCWLCNPNNPDGRLLQRTEILRLLNDHPDTTFVLDQSYVSFTTEEVIRPADIKGRKNLVMVYSFSHAYGIPGLRIGYIVANKDFMKRVAAFSTPWAVNALAIEAAKFILIHPAQFTLPIRKWQRNTVDFITALNRLDGVEVHPSGTTFFLLRLKKGTAAELKKYMLEEYNMLIRDASNFRGLDESYVRITTQRPAQNQLFIKALETFLEKYEGHHHHHH” as the sequence, how does the protein production read?
**A.** The protein production was “not failed”.

**Q.** Which protein production does the source give for “MADALKIGIAGLGTVGASLVRIIQQKSNELAVTCGRPITITAVSARDKTRDRGVDLSAVAWFDRPEDLAEKGDIDVFVELMGGAEGAANVSVRAALQRGLHVVTANKALLAYHGVELATIAEEKGSLLNFEAAVAGGIPVIKALRESLTGNAVSRIYGIMNGTCNYILTKMEKEGLSFAECLKEAQRLGYAEADPAFDIEGNDTAHKLAILTTLAFGNRIAADDIYLEGITNISIEDIHAAAELGYRIKLLGVAQRTETGIEQRVHPTMVPVDSVIAQVDGITNAVAIESDVLGELLMVGPGAGGNATASSVLGDIADIAKSQPGAQRVPVLGHPAKALEPYRKAQMQSHEGGYFIRLTVLDRTGVFASVATRMAENHISLESIVQRSTQHLAPSHHQTIILVTHATMEESVRKAVASIRSEGYLFGEPQVIRIERPKEEA” here?
**A.** The protein production was “failed”.

**Q.** For “MSRRGLLLMGQCMPCIKQNASKIRIRRMELDKNLNMYFKKDEFYFAHDPQKVCKTGDVVLIRELPERLTRLITHNVEKVVYPLGDITDPLTGKKVVVGNYREDIEMANQLFGKSEKAFDYEKAPPRGRLEGTKDFTHGETYIKYHEDGKDQPFAV”, which protein production is on record?
**A.** Its protein production is “failed”.

**Q.** Which protein production does the source give for “MNGIHDVGGMDGFGKVMYVKEEEDIYFTHDWERLALGLVAGCMAQGLGMKAFDEFRIGIELMRPVDYLTSSYYGHWIATVAYNLVDTGVLDEKELDERTEVFSKKPDTKIPRREDPALVKLVEKALNDGLSPLREISASPRFKVGERIKTKNIHPTGHTRFPRYARDKYGVIDEVYGAHVFPDDAAHRKGENPQYLYRVRFEAEELWGYKQKDSVYIDLWESYMEPVSH” here?
**A.** The protein production was “not failed”.

**Q.** With “RDSLFNDPNAPVLGNPEGDVTVVEFFDYNCPYCRRAMAEVQGLVDADPNVRLVYREWPILGEGSDFAARAALAARQQGKYEAFHWALMGMSGKANETGVLRIAREVGLDTEQLQRDMEAPEVTAHIAQSMALAQKLGFNGTPSFVVEDALVPGFVEQSQLQDAVDRARKAA” as the sequence, how does the protein production read?
**A.** The protein production was “not failed”.

**Q.** For “MFVDRIVLSFRGAGLERANTCLRKGQRLRKACSHVFRPLCSSDLPVNLPTDLETKRVMKPPLAERESIWSYPRPPRVEPNTRHLRVVHNQVTIAETRRGYRVLEYSHPPSYYIPLDDIDLQYVMVSSKVRSTFCEFKGEATYYDVEVGWEVSEGAAWSYDFPTRAYRMLKDHIAFYPAKVDACWVDEYRVRPEPRSFYGGWVTPLVKGVYPEEDVEDDEDSSGGDGKDSATQ”, which protein production is on record?
**A.** The protein production was “not failed”.
